Data reported in IntAct's records for PubMed 18996118.

B1: Capsid protein (Pseudomonas phage Pf3), P03623 (parent)
chain: MQSVITDVTGQLTAVQADITTIGGAIIVLAAVVLGIRWIKAQFF
partner: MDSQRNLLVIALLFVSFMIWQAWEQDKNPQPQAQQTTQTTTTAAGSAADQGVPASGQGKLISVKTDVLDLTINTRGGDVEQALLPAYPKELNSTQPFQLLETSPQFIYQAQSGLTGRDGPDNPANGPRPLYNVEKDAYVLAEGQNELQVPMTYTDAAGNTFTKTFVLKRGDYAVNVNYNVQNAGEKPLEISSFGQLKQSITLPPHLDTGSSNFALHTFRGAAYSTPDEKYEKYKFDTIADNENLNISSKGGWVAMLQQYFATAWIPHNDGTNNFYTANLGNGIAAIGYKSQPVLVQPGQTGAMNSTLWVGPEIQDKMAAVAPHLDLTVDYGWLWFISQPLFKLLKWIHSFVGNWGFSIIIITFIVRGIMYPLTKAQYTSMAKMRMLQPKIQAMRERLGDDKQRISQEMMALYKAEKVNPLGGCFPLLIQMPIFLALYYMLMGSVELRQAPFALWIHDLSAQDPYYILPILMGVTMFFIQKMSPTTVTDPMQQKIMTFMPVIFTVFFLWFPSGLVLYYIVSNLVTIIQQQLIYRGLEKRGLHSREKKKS
B2: Membrane protein insertase YidC (Escherichia coli (strain K12)), P25714 (parent)
chain: B1 partner
partner: B1 chain

Variants of: B1
Conditions: with yidc_ecoli yidC, P25714
In the case of I27C, the “effect of a mutation on the interaction” value is reported as “increasing interaction”.

Variants of: B1
Conditions: with yidc_ecoli yidC
In the case of V28C, the “effect of a mutation on the interaction” value is reported as “increasing interaction”.

Variants of: B2
Conditions: with capsd_bppf3 VIII, P03623
For S16C, the “effect of a mutation on the interaction” value was “increasing interaction”.

Variants of: B2
Conditions: with capsd_bppf3 VIII
In the case of F17C, the “effect of a mutation on the interaction” value is reported as “increasing interaction”.

Variants of: B2
Conditions: with capsd_bppf3 VIII
Remark: another data set of the same source
For M430C, the “effect of a mutation on the interaction” value was “increasing interaction”.
